In assay [1] the target is T1, Amyloid Beta (Aβ) 1-42 (human).
T1 construct: The same peptide was used in several aggregation states: fibrils, a heterogeneous aggregate mixture, and soluble oligomers or aggregates; also called Aβ42; Aβ 42
Nature of the assay: direct ELISA on fibrillar Aβ1-42. In general terms: In an ELISA, binding on a coated surface is turned into a signal by an enzyme label.

In assay [2] the target is T1, Amyloid Beta (Aβ) 1-42. Nature of the assay: competition ELISA, plate coated with fibril Aβ42, competitor hBP-biotin; IC50 of test divided by IC50 of hBP.
The target in assay [3] is T1, Amyloid Beta (Aβ) 1-42. Kind of assay: cell-based or functional assay.
Assay [4] addresses T1, Amyloid Beta (Aβ) 1-42. Kind of assay: direct ELISA, fibril aBeta plate coat titrated, antibody held constant at 2 ug/ml; no unit in the table, x axis 'log ng/ml Abeta' [right panel].
The target of assay [5] is T1, Amyloid Beta (Aβ) 1-42. Kind of assay: SPR (BIAcore T200), Aβ1-42 fibrils immobilized on CM5, antibody as analyte, global 1:1 fit. A general note: SPR reads the build-up and loss of mass on a sensor chip optically.
In assay [6] the target is T1, Amyloid Beta (Aβ) 1-42. Nature of the assay: direct ELISA, antibody titrated on 2.5 ug/ml plate-coated fibril Abeta; the row head of the drawn table reads 'IC50', the note below it says EC50; no unit in the table, x axis 'log ng/ml antibody' [left panel].
The target of assay [7] is T1, Amyloid Beta (Aβ) 1-42. Nature of the assay: SPR (BIAcore T200), Aβ1-42 fibrils immobilized on CM5, antibody as analyte, global 1:1 fit; apparent KD.
Assay [8] deals with T1, Amyloid Beta (Aβ) 1-42. Kind of assay: cell-based or functional assay. This is another data set of the same source.
Assay [9] deals with T1, Amyloid Beta (Aβ) 1-42. Kind of assay: direct ELISA on plate-coated Aβ42 fibrils (FIG. 21).
For assay [10], the target named is T1, Amyloid Beta (Aβ) 1-42. Kind of assay: direct ELISA on plate-coated Aβ42 fibrils (FIG. 21); this end is tied to h2726 by the EC50 values of Table 7.
Assay [11] has as its target T1, Amyloid Beta (Aβ) 1-42. Nature of the assay: SPR on Aβ1-42 fibrils; this end is tied to h2726 by the KD values of Table 6.
In assay [12] the target is T1, Amyloid Beta (Aβ) 1-42. Kind of assay: SPR on Aβ1-42 fibrils; this end is tied to h2831 by the KD values of Table 6.
Assay [13] deals with T1, Amyloid Beta (Aβ) 1-42. Kind of assay: direct ELISA on plate-coated Aβ42 fibrils (FIG. 21); this end is tied to h2831 by the EC50 values of Table 7.

Several values for one entry are separate records, joined by “and”; a condition that tells them apart may be missing. Identical values can stand only once.

What is called EC50 is the midpoint of the concentration-response curve. A higher EC50 goes with lower potency in that assay. Broadly, the koff is the first-order rate constant of dissociation. Read a low koff as slow dissociation. A word on the kon: it is a measure of how fast the partners come together.

T1 sequence (peptide, as listed by the source): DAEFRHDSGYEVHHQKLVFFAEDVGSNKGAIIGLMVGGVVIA

B1: h2731 (antibody, V domains shown)
VH: EVQLLESGGGLVQPGGSLRLSCAASGFTFSNYGMSWVRQAPGKGLEWVASIRSGSGRTYYSDNVKGRFTISRDNSKNTLYLQMNSLRAEDTAVYYCVRYDHYSGSSDYWGQGTLVTVSS
VL: DVVMTQSPLSLPVTLGEPASISCKSSQSLLDYDGKTYLNWLLQKPGQSPQRLIYRVTNRDTGVPDRFSGSGSGTDFTLKISRVEAEDVGVYYCWQGTHFPRSFGQGTKVEIK
notes: Humanized IgG
For the molecule B1, the EC50 with Amyloid Beta (Aβ) 1-42 [1] is 0.0081 µg/mL and 0.054 nM. Moreover, the “IC50 ratio (test:hBP)” value in the assay with Amyloid Beta (Aβ) 1-42 [2] is 0.61. Besides, in the assay with Amyloid Beta (Aβ) 1-42 [3], the “IC50 of Abeta spots per neuron (% Abeta control); the table gives no unit, the x axis is 'mAb (µg/mL)'” value amounted to 0.47 µg/mL and the “Total Area (under the curve of Abeta spots per neuron, % Abeta control)” value was 7520. Further, the “IC50 (half-maximal fibril Abeta coating concentration at constant antibody)” value in the assay with Amyloid Beta (Aβ) 1-42 [4] is 0.44 µg/mL. In the assay with Amyloid Beta (Aβ) 1-42 [5], this molecule yielded a koff of 2.62e-05 s⁻¹ and a kon of 372000 M⁻¹ s⁻¹. For the same molecule, the response in the assay with Amyloid Beta (Aβ) 1-42 [6] was half-maximal at 0.0387 µg/mL (EC50). The Kd with Amyloid Beta (Aβ) 1-42 [7] was determined as 70.4 pM. For the same molecule, the “blockade of binding of soluble Aβ to rat hippocampal synapses at 1:50 molar mAb:Aβ42 ratio” value in the assay with Amyloid Beta (Aβ) 1-42 [8] was over 90%. Moreover, in the assay with Amyloid Beta (Aβ) 1-42 [9], the “fold increase in assay signal (OD490) relative to aducanumab” value was determined as 3 fold.

B2: h2726 (antibody, V domains shown)
VH: EVQLLESGGGLVQPGGSLRLSCAASGFTFSNYGMSWVRQAPGKGLEWVASIRSGSGRTYYSDNVKGRFTISRDNSKNTLYLQMNSLRAEDTAVYYCVRYDHYSGSSDYWGQGTLVTVSS
VL: DVVMTQSPLSLPVTPGEPASISCKSSQSLLDYDGKTYLNWLLQKPGQSPQRLIYKVSNRDSGVPDRFSGSGSGTDFTLKISRVEAEDVGVYYCWQGTHFPRTFGQGTKVEIK
notes: Humanized IgG, detected with anti-human IgG
Consider B2, for which, in the assay with Amyloid Beta (Aβ) 1-42 [2], the “IC50 ratio (test:hBP)” value is 0.68. Besides, in the assay with Amyloid Beta (Aβ) 1-42 [3], the “IC50 of Abeta spots per neuron (% Abeta control); the table gives no unit, the x axis is 'mAb (µg/mL)'” value stood at 1.67 µg/mL and the “Total Area (under the curve of Abeta spots per neuron, % Abeta control)” value amounted to 9070. The “IC50 (half-maximal fibril Abeta coating concentration at constant antibody)” value with Amyloid Beta (Aβ) 1-42 [4] came out at 0.387 µg/mL. In the assay with Amyloid Beta (Aβ) 1-42 [5], the koff worked out at 2.12e-05 s⁻¹ and the kon stood at 393000 M⁻¹ s⁻¹. Besides, the “fold lower estimated EC50 relative to aducanumab” value with Amyloid Beta (Aβ) 1-42 [10] is 15 to 20 fold. This molecule also yielded an EC50 with Amyloid Beta (Aβ) 1-42 [6] of 0.0403 µg/mL. The Kd with Amyloid Beta (Aβ) 1-42 [7] was 54 pM. In addition, in the assay with Amyloid Beta (Aβ) 1-42 [11], the “fold greater avidity (apparent KD) than aducanumab” value lay in the range of 5 to 11 fold. In addition, the “fold increase in assay signal (OD490) relative to aducanumab” value in the assay with Amyloid Beta (Aβ) 1-42 [9] is 3 fold.

B3: h2831 (antibody, V domains shown)
VH: EVQLLESGGGLVQPGGSLRLSCAASGFTFSNFGMSWVRQAPGKGLEWVASVRSGSGRTYYSDNVKGRFTISRDNSKNTLYLQMNSLRAEDTAVYYCVRYDHYSGTSDYWGQGTLVTVSS
VL: DVVMTQSPLSLPVTLGEPASISCKSSQSLLDYDGKTYLNWLLQKPGQSPQRLIYRVTNRDTGVPDRFSGSGSGTDFTLKISRVEAEDVGVYYCWQGTHFPRSFGQGTKVEIK
notes: Humanized IgG
For B3, the “IC50 ratio (test:hBP)” value with Amyloid Beta (Aβ) 1-42 [2] came to 0.77. Besides, in the assay with Amyloid Beta (Aβ) 1-42 [3], the “IC50 of Abeta spots per neuron (% Abeta control); the table gives no unit, the x axis is 'mAb (µg/mL)'” value was found to be 0.924 µg/mL and the “Total Area (under the curve of Abeta spots per neuron, % Abeta control)” value was found to be 6500. For the same molecule, in the assay with Amyloid Beta (Aβ) 1-42 [4], the “IC50 (half-maximal fibril Abeta coating concentration at constant antibody)” value was found to be 0.412 µg/mL. Also, the “fold greater avidity (apparent KD) than aducanumab” value in the assay with Amyloid Beta (Aβ) 1-42 [12] is 5 to 11 fold. Moreover, in the assay with Amyloid Beta (Aβ) 1-42 [5], the koff came out at 2.94e-05 s⁻¹ and the kon was determined as 265000 M⁻¹ s⁻¹. Also, the “fold lower estimated EC50 relative to aducanumab” value in the assay with Amyloid Beta (Aβ) 1-42 [13] is 15 to 20 fold. The same molecule registered a concentration giving a half-maximal response (EC50) in the assay with Amyloid Beta (Aβ) 1-42 [6] of 0.0462 µg/mL. For the same molecule, the Kd with Amyloid Beta (Aβ) 1-42 [7] is 111 pM. For the same molecule, in the assay with Amyloid Beta (Aβ) 1-42 [9], the “fold increase in assay signal (OD490) relative to aducanumab” value was 3 fold.

Source of the values: patent US20250179161A1 (OTHAIR PROTHENA, published 2025).
